Measurements reported in paper PMC10121219.
pKd: −log10 of the molar value.

Molecular target: insulin receptor ectodomain (UniProt P06213)
Test: SPR; insulin receptor immobilised; svPDE flowed at 0.25, 0.5, 1.0, 2.0, 4.0 and 8.0 uM; KD by steady-state affinity model; apparent

snake venom phosphodiesterase (svPDE) from Naja atra (from UniProt A0A2D0TC04 1-830)
pKd: 5.74
